# Laboratory results reported in article PMC6616571.
# Test system: wild-type DNA polymerase beta (human)
# Test: EMSA
# Settings: 10 nM DNA, 5 mM MgCl2; approximately 50% of DNA bound at 32 nM enzyme; EMSA: 50 mM Tris-HCl pH 7.5, 100 mM KCl, 5 mM MgCl2, 1 mM DTT, 10% glycerol, 100 ug/ml BSA, room temperature 5 min; 10% native PAGE at 4 C
substance,measurement,value
1-nt gapped 34-bp DNA,K half,32 nM
